± gives the standard error. For some of these results: Fewer inactive variants are shown than the library holds.
B1: glmS ribozyme (parent)
chain: AUAAAAGCGCCAGAACUACAGAAAUGUAGUUGACGAGGAGGAGGUUUAUCGAAUUUUCGGCGGAUGCCUCCAAA

Key:
Details in all cases: with glucosamine-6-phosphate
[1] = variants of: B1; experiment: kcat; higher = faster cleavage; RNA array
How it was run: (§1)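 The measurements used barcoded ribozyme variants on sequenced MiSeq chips, transcribed in situ by E. coli RNA polymerase and tracked at 37 °C with a hybridised Cy3 probe. Glucosamine-6-phosphate, 40 μM to 10 mM in HEPES/KCl/Mg(OAc)2 buffer, was flowed in while tiles were imaged over ~14 h. Baseline-normalised signals, also normalised to non-cleaving reference variants, gave per-tile medians that were fit to one- or two-exponential decays for kobs. kcat and KM resulted from weighted Michaelis–Menten fits across concentrations.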

[2] = variants of: B1; experiment: self-cleavage kobs at 640 uM GlcN6P; higher = faster cleavage; RNA array
How it was run: as §1

[3] = variants of: B1; experiment: self-cleavage kobs at 2500 uM GlcN6P; higher = faster cleavage; RNA array
How it was run: as §1

[4] = variants of: B1; experiment: self-cleavage kobs at 10000 uM GlcN6P; higher = faster cleavage; RNA array
How it was run: as §1

[5] = variants of: B1; experiment: self-cleavage kobs at 160 uM GlcN6P; higher = faster cleavage; RNA array
How it was run: as §1

[6] = variants of: B1; experiment: KM; higher = weaker cofactor use; RNA array
How it was run: as §1

[7] = variants of: B1; experiment: self-cleavage kobs at 40 uM GlcN6P; higher = faster cleavage; RNA array
How it was run: as §1

Variant	kcat [1]	self-cleavage kobs at 640 uM GlcN6P [2]	self-cleavage kobs at 2500 uM GlcN6P [3]	self-cleavage kobs at 10000 uM GlcN6P [4]	self-cleavage kobs at 160 uM GlcN6P [5]	KM [6]	self-cleavage kobs at 40 uM GlcN6P [7]
U31C G59U C68A	3.76e-05 ± 1.6e-05 s⁻¹	–	–	–	–	–	–
C16U C68A	3.77e-05 ± 5.5e-06 s⁻¹	4.99e-05 ± 1.5e-05 s⁻¹	2.73e-05 ± 1.3e-05 s⁻¹	3.74e-05 ± 7.6e-06 s⁻¹	–	–	–
G38A C50G G63U C71A	4.03e-05 ± 1.2e-05 s⁻¹	4.7e-05 ± 2.1e-05 s⁻¹	3.94e-05 ± 1.3e-05 s⁻¹	–	7.25e-05 ± 2.2e-05 s⁻¹	–	–
C11A G51U U65C C68U	3.35e-05 ± 9e-06 s⁻¹	–	–	–	–	–	–
A12G C16A	3.87e-05 ± 9.1e-07 s⁻¹	–	–	3.41e-05 ± 6.7e-06 s⁻¹	–	1330 ± 200 µM	< 1e-05 s⁻¹
A12G C16G	0.000144 ± 1.3e-05 s⁻¹	–	3.92e-05 ± 1.4e-05 s⁻¹	8.35e-05 ± 1.2e-05 s⁻¹	–	7160 ± 1300 µM	–
C34U C58A	< 1e-05 s⁻¹	< 1e-05 s⁻¹	< 1e-05 s⁻¹	–	–	–	< 1e-05 s⁻¹
A14U C71A	0.00123 ± 0.0004 s⁻¹	0.00027 ± 4.3e-05 s⁻¹	0.000647 ± 8.4e-05 s⁻¹	0.00114 ± 0.00019 s⁻¹	8.35e-05 ± 1.2e-05 s⁻¹	2040 ± 970 µM	5.26e-05 ± 9.6e-06 s⁻¹
U57A C61A	1.53e-05 ± 5.7e-06 s⁻¹	–	–	–	–	–	–
A14G A39U	0.0511 ± 0.013 s⁻¹	0.0183 ± 0.0062 s⁻¹	0.0365 ± 0.014 s⁻¹	0.0395 ± 0.019 s⁻¹	0.00416 ± 0.0013 s⁻¹	1450 ± 480 µM	0.00167 ± 0.00051 s⁻¹
A52C C70A	1.34e-05 ± 4e-06 s⁻¹	–	–	–	–	–	–
A53C C67G	3.47e-05 ± 4.1e-06 s⁻¹	–	3.42e-05 ± 9e-06 s⁻¹	3.14e-05 ± 6.5e-06 s⁻¹	–	–	< 1e-05 s⁻¹
A12U G40A C71U	0.101 ± 0.05 s⁻¹	0.0194 ± 0.007 s⁻¹	–	0.116 ± 0.047 s⁻¹	–	–	0.00209 ± 0.0003 s⁻¹
G32C G41U	< 1e-05 s⁻¹	–	–	–	< 1e-05 s⁻¹	–	< 1e-05 s⁻¹
G32U U55G	0.000798 ± 0.0002 s⁻¹	0.000151 ± 2.5e-05 s⁻¹	0.000274 ± 6.5e-05 s⁻¹	0.000652 ± 9e-05 s⁻¹	–	3110 ± 1400 µM	–
G37U U69G	4.56e-05 ± 1.6e-05 s⁻¹	6.88e-05 ± 1.5e-05 s⁻¹	–	–	3.74e-05 ± 8.6e-06 s⁻¹	–	–
A12C A48U	0.000191 ± 4.1e-06 s⁻¹	3.34e-05 ± 9.3e-06 s⁻¹	9.1e-05 ± 1.6e-05 s⁻¹	0.000147 ± 1.6e-05 s⁻¹	–	2890 ± 150 µM	–
G38C C50U	< 1e-05 s⁻¹	< 1e-05 s⁻¹	–	< 1e-05 s⁻¹	< 1e-05 s⁻¹	–	–
A39G U56A	0.0171 ± 0.0023 s⁻¹	0.0049 ± 0.00073 s⁻¹	0.0133 ± 0.0025 s⁻¹	0.0137 ± 0.0019 s⁻¹	0.00162 ± 0.00029 s⁻¹	1670 ± 340 µM	0.000348 ± 6.9e-05 s⁻¹

— the supplement of paper PMC7125110
